Literature values as cited in PMC5548488.

Target: CAST/ELKS (UniProt Q8K3M6)
Chain of UniProt Q8K3M6 (Q8K3M6 whole entry): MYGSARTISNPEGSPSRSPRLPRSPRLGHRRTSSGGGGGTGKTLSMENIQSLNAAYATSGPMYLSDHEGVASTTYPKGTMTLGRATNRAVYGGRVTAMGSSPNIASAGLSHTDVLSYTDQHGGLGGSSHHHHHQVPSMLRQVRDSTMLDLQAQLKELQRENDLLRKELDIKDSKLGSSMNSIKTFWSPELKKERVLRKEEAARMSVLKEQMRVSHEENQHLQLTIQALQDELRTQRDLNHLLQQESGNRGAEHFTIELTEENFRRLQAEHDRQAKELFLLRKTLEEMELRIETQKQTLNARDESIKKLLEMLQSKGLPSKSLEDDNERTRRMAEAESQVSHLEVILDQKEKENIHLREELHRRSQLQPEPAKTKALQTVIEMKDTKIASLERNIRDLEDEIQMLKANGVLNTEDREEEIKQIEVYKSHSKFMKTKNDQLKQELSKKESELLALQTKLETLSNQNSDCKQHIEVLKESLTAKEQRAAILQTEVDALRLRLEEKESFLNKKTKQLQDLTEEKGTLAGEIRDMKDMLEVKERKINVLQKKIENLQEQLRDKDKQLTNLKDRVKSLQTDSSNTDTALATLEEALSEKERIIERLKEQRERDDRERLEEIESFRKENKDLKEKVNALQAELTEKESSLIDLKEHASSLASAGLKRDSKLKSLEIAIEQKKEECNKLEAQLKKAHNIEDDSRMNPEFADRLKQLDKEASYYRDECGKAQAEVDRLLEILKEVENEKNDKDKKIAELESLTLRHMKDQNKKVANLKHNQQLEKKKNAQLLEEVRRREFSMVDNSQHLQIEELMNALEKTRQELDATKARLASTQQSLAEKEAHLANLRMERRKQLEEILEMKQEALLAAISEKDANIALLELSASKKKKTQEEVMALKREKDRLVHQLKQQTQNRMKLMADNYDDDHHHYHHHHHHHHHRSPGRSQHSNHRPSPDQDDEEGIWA

Which Kd does the source give for RIM PDZ (from UniProt Q86UR5) here?
Its Kd is 0.2 µM.
